According to patent publication US20260132200A1 (Regeneron, published 2026):
Where a chain is given by its changes, count along the chain named. Where two headings read alike, the source gives them in different places.

What was measured:
[1] = target: T1, human CD3 expressed on cells (Jurkat, a CD3+ human T-cell line; human T cells) (human, UniProt P07766 23-126; P04234 22-100); experiment: cell-based or functional assay
T1 chain 1: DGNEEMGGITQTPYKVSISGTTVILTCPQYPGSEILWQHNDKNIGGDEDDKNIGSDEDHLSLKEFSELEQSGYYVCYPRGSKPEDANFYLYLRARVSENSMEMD
T1 chain 2: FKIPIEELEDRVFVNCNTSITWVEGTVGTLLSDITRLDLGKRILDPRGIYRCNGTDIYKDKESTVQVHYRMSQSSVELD

[2] = target: T2, human CD20 expressed on Raji cells (CD3-, CD20+ human B-cell line) (human, UniProt P11836 1-297); experiment: cell-based or functional assay
T2 sequence: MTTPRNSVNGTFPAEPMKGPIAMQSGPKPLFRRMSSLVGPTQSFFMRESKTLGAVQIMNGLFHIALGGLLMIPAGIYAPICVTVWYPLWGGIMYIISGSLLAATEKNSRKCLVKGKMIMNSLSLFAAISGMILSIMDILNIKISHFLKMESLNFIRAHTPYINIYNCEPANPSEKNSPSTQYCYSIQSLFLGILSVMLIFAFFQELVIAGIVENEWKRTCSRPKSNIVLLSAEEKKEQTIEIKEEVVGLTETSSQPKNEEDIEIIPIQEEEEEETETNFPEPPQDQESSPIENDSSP

[3] = target: T2, human CD20 expressed on Raji cells …; experiment: cell-based or functional assay; remark: listed apart in the source
[4] = target: T2, human CD20 expressed on Raji cells …; experiment: FACS on Raji cells
Procedure: (§1) CD20×CD3 bispecific antibodies and Control constructs, as set forth in Example 1, were tested via FACS for their ability to bind to Jurkat (CD3+, CD20− human T-cell line), Raji (CD3−, CD20+ Human B-cell line), or cynomolgus PBMCs (“mkT cells”).
(§2) FACS data was acquired using the following protocol: Cells at 2×10⁵ per well were incubated with serially diluted antibodies for 30 min on ice. Post incubation, cells were washed and appropriate secondary (Jurkat, RAJI cells) or cocktail of secondary antibodies (for cyno PBMC) was added and incubated for an additional 30 minutes. After incubation, cells were washed, re-suspended in cold PBS containing 1% BSA and analyzed by flow cytometry on a BD FACS Canto II. Jurkat and Raji cells were gated by side and forward scatters, while cynomolgus T cells were also gated in a CD2+CD4+ population. The EC₅₀s for cell binding titration were determined using Prism software with values calculated using a 4-parameter non-linear regression analysis.

[5] = target: T1, human CD3 expressed on cells (Jurkat, a …); experiment: cell-based or functional assay
[6] = target: T1, human CD3 expressed on cells (Jurkat, a …); experiment: FACS on Jurkat cells
Procedure: as §1, §2

[7] = target: T3, Soluble heterodimeric CD3 protein (hCD3-epsilon/hCD3-delta) with either a human Fc tag (hFcΔAdp/hFc) or a … (human, UniProt P07766 23-126; P04234 22-100); experiment: SPR Biacore 25C antigen-capture
T3 construct: Soluble construct; not shown: Fc tag: human (hFcΔAdp/hFc)
T3 chain 1: T1 chain 1
T3 chain 2: T1 chain 2
Procedure: Measurements were conducted on a T200 Biacore instrument.
In the antigen-capture format, heterodimeric CD3 protein was captured using a rabbit anti-mouse Fc or mouse anti-human Fc and the respective antibodies were injected over the captured antigen.
Kinetic association (kₐ) and dissociation (kd) rate constants were determined by processing and fitting the data to a 1:1 binding model using Scrubber 2.0 curve fitting software. Binding dissociation equilibrium constants (KD) and dissociative half-lives (t_{1/2}) were calculated from the kinetic rate constants as: KD (M)=kd/kₐ; and t_{1/2} (min) (ln 2/(60*kd). NT=not tested; NB=no binding observed.

B1: H1H5801B (antibody, human IgG1, V domains shown)
VH: QVQLVQSGGGVVQPGGSLRLSCAASGFTFDDYAMHWVRQAPGKGLEWVSLISGDGGSTYYADSVKGRFTISRDNSKNSLYLQMNSLRTEDTALYYCAKDDSSSSWYYYYYGMDVWGRGTTVTVSS
VL: DIQMTQSPSSLSASVGDRVTITCRASQRISSYLNWYQQKPGKAPKVLISVASSLQSGVPSRFSGSGSGTDFTLTISSLQPEDFASYYCQQSYNTPLTFGGGTKVEIKR
U937 Cytotoxicity Human T-cells [M] (EC50) [1]: 9.23e-11 M

B2: BS3/20-007 (bispecific antibody, V domains shown)
VH 1: EVQLVESGGGLVQPGRSLRLSCVASGFTFNDYAMHWVRQAPGKGLEWVSVISWNSDSIGYADSVKGRFTISRDNAKNSLYLQMHSLRAEDTALYYCAKDNHYGSGSYYYYQYGMDVWGQGTTVTVSS
VH 2: DVQLVQSGAEVKKPGASVKVSCKASGYTFTRYTMHWVRQAPGQGLEWIGYINPSRGYTNYADSVKGRFTITTDKSTSTAYMELSSLRSEDTATYYCARYYDDHYCLDYWGQGTTVTVSS
VL: DIVLTQSPATLSLSPGERATLSCRASQSVSYMNWYQQKPGKAPKRWIYDTSKVASGVPARFSGSGSGTDYSLTINSLEAEDAATYYCQQWSSNPLTFGGGTKVEIK
CDC EC50, Raji [2]: 2620 pM | CDC EC50, Raji SCID1 [2]: 101000 pM | CDC EC50, Raji SCID2 [2]: 8830 pM | CDC EC50, Raji SCID3 [2]: 37700 pM | CDC EC50, Raji SCID4 [2]: 140000 pM | T-Cell Mediated Cytotoxicity EC50, Raji [2]: 1.66 pM | T-Cell Mediated Cytotoxicity EC50, Raji SCID1 [2]: 1.11 pM | T-Cell Mediated Cytotoxicity EC50, Raji SCID2 [2]: 0.652 pM | T-Cell Mediated Cytotoxicity EC50, Raji SCID3 [2]: 0.293 pM | T-Cell Mediated Cytotoxicity EC50, Raji SCID4 [2]: 1.53 pM

B3: BS3/20-005 (bispecific antibody, V domains shown)
VH 1: B2 VH 1
VH 2: QVQLVESGGGVVQPGRSLRLACVASGFTFRSYGMHWVRQAPGKGLQWVAMIYYDGKNKYYADSVRGRFTISRDNSKNTLYLQMNNLRVEDTAMYFCARGPGYNWLDPWGQGTLVTVSS
VL: EIVMTQSPATLSVSPGERATLSCRASQRISSNLAWYQQKPGQAPRLLIYGASTRATGSPARFSGSGSGTDFTLTISSLQSEDVAVYYCQQHHNWPLTFGGGTKVEIK
Raji Cytotoxicity Human T-cells [M] (EC50) [3]: 1.95e-11 M | EC50 [4]: 81700 pM

B4: BS3/20-004 (bispecific antibody, V domains shown)
VH 1: B2 VH 1
VH 2: QVQLVESGGGVVQPGRSLRLSCAASGFTFRSYAMHWVRQAPGKGLEWVAMVYYDGNNQYYADSVRGRFTISRDNSKNTLYLQMNSLRADDTAVYFCARGPGYNWLDPWGQGTLVTVSS
VL: B3 VL with R28S, I29V, S31R, S58I, V83F, H91Y, H92N, E105V
Raji Cytotoxicity Human T-cells [M] (EC50) [3]: 1.29e-11 M | U937 Cytotoxicity Human T-cells [M] (EC50) [5]: 6.07e-11 M | EC50 [4]: 10200 pM | EC50 [6]: 48900 pM

B5: BS3/20-002 (bispecific antibody, V domains shown)
VH 1: B2 VH 1
VH 2: EVQLVESGGGLVQPGGSLRLSCAATGFTFDDFTMHWVRQAPGKGLEWVSGISWNSGSIGYVDSVKGRFTISRDNAKNSLYLQMNSLRAEDTALYYCAKDNSGYGYYYYGMDVWGQGTTVTVSS
VL: EIVMTQSPATLSVSPGERATLSCRASHSVSRNSAWYQQKPGQAPRLLIYGASTRATGIPARFSGSGSGTEFTLTISSLQSEDFAIYYCQQYNNWPLTFGGGTKVEIK
Raji Cytotoxicity Human T-cells [M] (EC50) [3]: 7.71e-11 M | U937 Cytotoxicity Human T-cells [M] (EC50) [5]: 8.24e-10 M | EC50 [4]: 11500 pM | EC50 [6]: 56200 pM

B6: H2M3547N (antibody, V domains shown)
VH: EAQLVESGGGLVQPGRSLRLSCTTSGFTFDDYTMHWVRQAPGKGLEWISDISWNGGTKGYADSVKGRFTISRDNAKNSLYLQMDSLRGEDTALYYCVKDKSGYGHFYFGLDVWGQGTTVTVSS
VL: DIQMTQSPSSLTASVGDRVTFTCRASQSISRHLSWYQQKPGKAPKLLIYAASSLESGVPSRFSGSGSGTDFTLTISSLHPEDFATYYCQQSYSNPPITFGQGTRLEIK
notes: mouse IgG2 Fc, human variable regions
koff [7]: 1e-05 s⁻¹ | kon [7]: 470000 M⁻¹ s⁻¹
